Results as given in paper PMC5080355, “Interaction of the Nitrogen Regulatory Protein GlnB (PII) with Biotin Carboxyl Carrier Protein (BCCP) Controls Acetyl-CoA Levels in the Cyanobacterium Synechocystis sp. PCC 6803” (Frontiers in Microbiology, 2016).

Biological target: E. coli biotin carboxyl carrier protein (His-BCCP), subunit of acetyl-CoA carboxylase (E. coli) (UniProt P0ABD8)

Chain of GlnB (PII) from Synechococcus elongatus PCC7942, wild type (P0A3F4 whole entry): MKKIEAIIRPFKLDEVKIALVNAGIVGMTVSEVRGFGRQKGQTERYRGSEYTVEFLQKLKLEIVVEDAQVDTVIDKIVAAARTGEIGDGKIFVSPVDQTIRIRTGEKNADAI

EC50 of inhibition of reconstituted E. coli ACC activity by increasing GlnB (coupled PK/LDH assay, 10 mM ATP): 310 nM
maximum inhibition of reconstituted E. coli ACC activity (coupled PK/LDH assay, 10 mM ATP): 93%
Substance: GlnB (PII) from Synechococcus elongatus PCC7942, wild type (from UniProt P0A3F4 1-112) (natural protein)
